Experimental data taken from PMC9482650, “Quantitative fragmentomics allow affinity mapping of interactomes” (Nature Communications, 2022).

Columns and labels:
Assay in all cases: holdup assay
Design in all cases: key: below the threshold = too weak to quantify, mostly under pKd 3.1 to 4
[1] = target: T1, APBA1_1, Q02410
T1 sequence (Q02410 651-752, limits assumed, looked up): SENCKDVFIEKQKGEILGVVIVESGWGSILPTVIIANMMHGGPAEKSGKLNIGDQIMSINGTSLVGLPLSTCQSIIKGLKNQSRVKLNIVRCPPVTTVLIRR

[2] = target: T2, ARHGEF11, O15085
T2 sequence (O15085 42-136, limits assumed, looked up): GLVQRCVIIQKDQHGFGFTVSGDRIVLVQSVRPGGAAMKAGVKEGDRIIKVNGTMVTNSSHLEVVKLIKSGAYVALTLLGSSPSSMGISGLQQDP

[3] = target: ARHGEF12, Q9NZN5-2
ARHGEF12, Q9NZN5-2, sequence (Q9NZN5 other isoform, or with tags, fused parts or gaps): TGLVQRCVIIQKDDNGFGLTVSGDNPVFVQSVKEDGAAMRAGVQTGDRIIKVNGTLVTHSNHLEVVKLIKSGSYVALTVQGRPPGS

[4] = target: DLG5_1, Q8TDM6
DLG5_1, Q8TDM6, sequence (Q8TDM6 617-713): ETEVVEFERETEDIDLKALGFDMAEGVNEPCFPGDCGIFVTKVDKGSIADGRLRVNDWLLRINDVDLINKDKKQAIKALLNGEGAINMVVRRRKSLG

[5] = target: FRMPD3, Q5JV73
FRMPD3, Q5JV73, sequence (Q5JV73 12-100): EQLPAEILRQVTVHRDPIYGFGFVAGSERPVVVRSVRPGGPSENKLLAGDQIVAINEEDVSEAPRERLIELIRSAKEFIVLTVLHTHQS

[6] = target: GRID2IP_2, A4D2P6
GRID2IP_2, A4D2P6, sequence (A4D2P6 272-370): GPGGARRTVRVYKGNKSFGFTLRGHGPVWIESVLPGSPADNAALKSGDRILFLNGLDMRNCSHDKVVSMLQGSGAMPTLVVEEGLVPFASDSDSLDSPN

[7] = target: T3, GRIP1_2, Q9Y3R0
T3 sequence (Q9Y3R0 145-248, limits assumed, looked up): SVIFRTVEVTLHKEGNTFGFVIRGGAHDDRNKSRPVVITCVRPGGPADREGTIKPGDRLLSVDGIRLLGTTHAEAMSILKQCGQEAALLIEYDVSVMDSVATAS

[8] = target: HTRA1, Q92743
HTRA1, Q92743, sequence (Q92743 360-477): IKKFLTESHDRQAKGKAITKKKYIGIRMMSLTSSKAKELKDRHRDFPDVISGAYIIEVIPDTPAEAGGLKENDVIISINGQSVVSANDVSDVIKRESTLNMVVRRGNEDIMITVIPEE

[9] = target: IL16_1, Q14005
IL16_1, Q14005, sequence (Q14005 210-306): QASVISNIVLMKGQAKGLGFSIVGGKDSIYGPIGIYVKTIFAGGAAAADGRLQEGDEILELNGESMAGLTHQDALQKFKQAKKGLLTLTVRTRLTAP

[10] = target: IL16_3, Q14005
IL16_3, Q14005, sequence (Q14005 1107-1207): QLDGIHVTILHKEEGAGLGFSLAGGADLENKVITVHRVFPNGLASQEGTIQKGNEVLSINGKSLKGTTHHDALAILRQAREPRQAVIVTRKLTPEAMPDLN

[11] = target: Inadl_3, Q8NI35
Inadl_3, Q8NI35, sequence (Q8NI35 359-469): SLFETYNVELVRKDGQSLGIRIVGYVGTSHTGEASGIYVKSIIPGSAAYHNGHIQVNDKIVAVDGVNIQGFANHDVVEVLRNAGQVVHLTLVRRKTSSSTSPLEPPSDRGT

[12] = target: Inadl_5, Q8NI35
Inadl_5, Q8NI35, sequence (Q8NI35 673-780): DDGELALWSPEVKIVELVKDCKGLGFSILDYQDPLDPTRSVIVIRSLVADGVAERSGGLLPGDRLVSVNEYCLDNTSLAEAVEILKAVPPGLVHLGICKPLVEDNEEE

[13] = target: LNX1_2, Q8TBB1
LNX1_2, Q8TBB1, sequence (Q8TBB1 371-470): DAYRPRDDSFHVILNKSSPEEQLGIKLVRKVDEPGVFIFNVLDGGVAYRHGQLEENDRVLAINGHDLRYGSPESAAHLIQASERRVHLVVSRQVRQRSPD

[14] = target: MAGI2_2, Q86UL8
MAGI2_2, Q86UL8, sequence (Q86UL8 410-522): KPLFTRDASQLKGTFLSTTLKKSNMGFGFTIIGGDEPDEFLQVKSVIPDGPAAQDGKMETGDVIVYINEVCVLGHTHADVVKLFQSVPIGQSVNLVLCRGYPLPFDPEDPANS

[15] = target: MAGI3_2, Q5TCQ9
MAGI3_2, Q5TCQ9, sequence (Q5TCQ9 398-503): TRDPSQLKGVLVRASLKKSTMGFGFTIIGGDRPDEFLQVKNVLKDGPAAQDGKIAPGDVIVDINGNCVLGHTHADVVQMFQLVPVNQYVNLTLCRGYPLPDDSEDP

[16] = target: MAST1, Q9Y2H9
MAST1, Q9Y2H9, sequence (Q9Y2H9 962-1065): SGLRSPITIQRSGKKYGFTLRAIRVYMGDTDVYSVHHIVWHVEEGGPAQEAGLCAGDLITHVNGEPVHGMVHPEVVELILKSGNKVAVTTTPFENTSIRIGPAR

[17] = target: T4, MPP7, Q5T2T1
T4 sequence (Q5T2T1 134-230, limits assumed, looked up): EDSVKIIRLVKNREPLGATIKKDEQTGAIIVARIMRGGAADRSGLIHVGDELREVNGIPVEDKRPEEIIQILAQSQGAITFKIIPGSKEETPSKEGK

[18] = target: T5, NHERF3_3, Q5T2W1
T5 sequence (Q5T2W1 238-333, limits assumed, looked up): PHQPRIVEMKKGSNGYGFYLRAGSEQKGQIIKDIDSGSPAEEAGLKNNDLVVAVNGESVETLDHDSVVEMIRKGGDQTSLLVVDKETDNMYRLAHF

[19] = target: PDLIM1, O00151
PDLIM1, O00151, sequence (O00151 1-87): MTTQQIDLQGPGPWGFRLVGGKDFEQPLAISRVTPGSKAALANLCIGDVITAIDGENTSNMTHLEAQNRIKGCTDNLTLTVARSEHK

[20] = target: T6, PDZRN3_1, Q9UPQ7
T6 sequence (Q9UPQ7 244-349, limits assumed, looked up): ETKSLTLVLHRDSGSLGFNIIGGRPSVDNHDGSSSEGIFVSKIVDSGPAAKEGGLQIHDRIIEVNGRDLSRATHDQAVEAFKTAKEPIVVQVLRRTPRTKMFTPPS

[21] = target: PTPN3, P26045
PTPN3, P26045, sequence (P26045 505-587): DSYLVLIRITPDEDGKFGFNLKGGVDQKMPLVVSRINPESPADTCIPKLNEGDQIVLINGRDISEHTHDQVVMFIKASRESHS

[22] = target: T7, RADIL, Q96JH8
T7 sequence (Q96JH8 971-1071, limits assumed, looked up): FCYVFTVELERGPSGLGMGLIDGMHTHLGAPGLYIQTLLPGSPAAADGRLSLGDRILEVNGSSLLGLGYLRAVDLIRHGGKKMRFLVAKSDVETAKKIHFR

[23] = target: T8, RAPGEF6, Q8TEU7
T8 sequence (Q8TEU7 525-625, limits assumed, looked up): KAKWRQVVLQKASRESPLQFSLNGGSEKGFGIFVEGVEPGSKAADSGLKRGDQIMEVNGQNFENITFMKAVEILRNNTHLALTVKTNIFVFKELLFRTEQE

[24] = target: T9, RHPN1, Q8TCX5
T9 sequence (Q8TCX5 508-602, limits assumed, looked up): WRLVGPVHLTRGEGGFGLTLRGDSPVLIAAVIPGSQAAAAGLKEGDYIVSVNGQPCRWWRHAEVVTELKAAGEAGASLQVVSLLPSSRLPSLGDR

[25] = target: T10, SNTA1, Q13424
T10 sequence (Q13424 82-180, limits assumed, looked up): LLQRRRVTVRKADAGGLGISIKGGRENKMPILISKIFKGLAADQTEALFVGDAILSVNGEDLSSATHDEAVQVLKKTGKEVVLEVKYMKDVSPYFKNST

[26] = target: T11, SNTG2, Q9NY99
T11 sequence (Q9NY99 68-166, limits assumed, looked up): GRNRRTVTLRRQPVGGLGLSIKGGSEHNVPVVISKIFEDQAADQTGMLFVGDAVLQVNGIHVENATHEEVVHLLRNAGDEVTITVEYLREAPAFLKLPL

[27] = target: TJP1_3, Q07157
TJP1_3, Q07157, sequence (Q07157 416-512): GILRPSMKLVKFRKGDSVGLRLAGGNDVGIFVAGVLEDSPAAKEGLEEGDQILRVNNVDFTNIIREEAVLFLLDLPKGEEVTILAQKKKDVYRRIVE

[28] = plain residues with an end cap or a label only (N-terminal biotin on a linker: ahx)
[29] = plain residues with an end cap or a label only (N-terminal biotin on a linker: ttds)

B1: PSCDBP, O60759 (peptide)
chain: RAVEEEESRF
- pKd [1, 28]: below the threshold
- pKd [2, 28]: below the threshold
- pKd [3, 28]: below the threshold
- pKd [4, 28]: below the threshold
- pKd [5, 28]: below the threshold
- pKd [6, 28]: below the threshold
- pKd [7, 28]: below the threshold
- pKd [8, 28]: below the threshold
- pKd [9, 28]: below the threshold
- pKd [10, 28]: below the threshold
- pKd [11, 28]: below the threshold
- pKd [12, 28]: below the threshold
- pKd [13, 28]: below the threshold
- pKd [14, 28]: below the threshold
- pKd [15, 28]: below the threshold
- pKd [16, 28]: 4.02
- pKd [17, 28]: below the threshold
- pKd [18, 28]: below the threshold
- pKd [19, 28]: below the threshold
- pKd [20, 28]: below the threshold
- pKd [21, 28]: 3.98
- pKd [22, 28]: below the threshold
- pKd [23, 28]: below the threshold
- pKd [24, 28]: 4.44
- pKd [25, 28]: below the threshold
- pKd [26, 28]: below the threshold
- pKd [27, 28]: below the threshold

B2: DOCK4, Q8N1I0 (peptide)
chain: RPLPRKVSQL
- pKd [1, 29]: below the threshold
- pKd [2, 29]: 3.62
- pKd [3, 29]: 4.62
- pKd [4, 29]: below the threshold
- pKd [5, 29]: below the threshold
- pKd [6, 29]: 4.19
- pKd [7, 29]: below the threshold
- pKd [8, 29]: below the threshold
- pKd [9, 29]: below the threshold
- pKd [10, 29]: below the threshold
- pKd [11, 29]: below the threshold
- pKd [12, 29]: below the threshold
- pKd [13, 29]: below the threshold
- pKd [14, 29]: 4.6
- pKd [15, 29]: 4.69
- pKd [16, 29]: 3.86
- pKd [17, 29]: below the threshold
- pKd [18, 29]: below the threshold
- pKd [19, 29]: below the threshold
- pKd [20, 29]: 3.64
- pKd [21, 29]: 4.73
- pKd [22, 29]: below the threshold
- pKd [23, 29]: below the threshold
- pKd [24, 29]: below the threshold
- pKd [25, 29]: below the threshold
- pKd [26, 29]: 3.77
- pKd [27, 29]: below the threshold
